Patent US20210380702A1 (Regeneron, published 2021)
Several values for one entry are separate records, joined by “and”; a condition that tells them apart may be missing. Equal entries are not always repeated.

What was measured:
[1] = target: T1, full length human PD-L1 (amino acids 1 to 290 of NP_054862.1) on transfected cells (human, UniProt Q9NZQ7 19-290); assay: FACS, 100 nM antibody, HEK293/hPD-L1 cells
T1 construct: also called HEK293/hPD-L1; Raji/hPD-L1
Protocol: (§1) The binding of anti-PD-L1 antibodies to a human embryonic kidney cell line (HEK293; ATCC, #CRL-1573) stably transfected with full length human PD-L1 (amino acids 1 to 290 of accession number NP_054862.1) (HEK293/hPD-L1) was determined by FACS.
(§2) For the assay, adherent cells were detached using enzyme-free dissociation buffer and blocked with complete medium. Cells were centrifuged and resuspended at a concentration of 2.8×10\hat{ }6 cells/mL in cold PBS containing 2% FBS. […] Cells were washed with D-PBS containing 2% FBS to remove unbound secondary detection reagents and fluorescence measurements were acquired using a HyperCyte (IntelliCyt, Inc.) flow cytometer. Data was analyzed using HyperCyte software.

[2] = target: T2, recombinant cynomolgus monkey PD-L1 expressed with a C-terminal mouse IgG2a Fc tag (cynomolgus monkey); assay: SPR (Biacore), mAb captured, 37C
T2 construct: also called MfPD-L1-mFc; monkey PD-L1-mFc

[3] = target: T1, full length human PD-L1 (amino acids 1 …); assay: FACS, 100 nM antibody
Protocol: as §1, §2

[4] = target: T3, recombinant human PD-L1 (amino acids 19-239 of NP_054862.1) expressed with a C-terminal human IgG1 Fc tag (human); assay: SPR (Biacore 3000): 100 nM hPD-L1-hFc + 500 nM mAb on captured hPD-1-mFc, 25C
T3 construct: also called hPD-L1-hFc
Protocol: Next, inhibition studies for anti-PD-L1 monoclonal antibodies expressed with human Fc were performed on Biacore 3000 instrument. […] The entire experiment was performed at 25° C. in HBST running buffer (0.01 M HEPES pH7.4, 0.15M NaCl, 3 mM EDTA, 0.05% v/v Surfactant P20). The real-time binding responses were monitored during the entire course of the experiment and the binding response at the end of every step was recorded.

[5] = target: T4, recombinant human PD-L1 (amino acids 19-239 of NP_054862.1) expressed with a C-terminal mouse IgG2a Fc tag (human); assay: competition ELISA: 8 nM hPD-L1-mFc binding to coated hB7-1-hFc-6His
T4 construct: called dimeric; also called hPD-L1-mFc
Protocol: (§3) The ability of monoclonal anti-PD-L1 antibodies to block human PD-L1 from binding to its binding partners, the human PD-1 and the human B7-1 receptors, was measured using two competition sandwich ELISA formats.
(§4) A dimeric human PD-1 protein comprised of a portion of the extracellular domain (amino acids 25-170 of accession number NP_005009.2 with a C93S change) that was expressed with a C-terminal hFc tag (hPD-1-hFc; SEQ ID: 350) and a dimeric human B7-1 protein comprised of a portion of the extracellular domain expressed with C-terminal hFc tag and hexahistidine tags (hB7-1-hFc-6His; R&D Systems, #140-B1) were separately coated at 2 μg/mL on a 96-well microtiter plate in a PBS buffer overnight at 4° C. […] These antibody-protein complexes were then incubated for 1 hour at room temperature (RT). […] The complexes were allowed to bind to the coated plates for 1 hour at RT. […] Samples were developed with a TMB solution (BD Biosciences, #51-2606KC and #51-2607KC) to produce a colorimetric reaction and neutralized with 1M sulfuric acid before measuring absorbance at 450 nm on a Victor X5 plate reader. Data analysis used a sigmoidal dose-response model within Prism™ software.

[6] = target: T1, full length human PD-L1 (amino acids 1 …); assay: cell-based or functional assay
[7] = target: T4, recombinant human PD-L1 (amino acids …); assay: competition ELISA: 0.5 nM hPD-L1-mFc binding to coated hPD-1-hFc
Protocol: as §3, §4

T3 sequence (chain, as listed by the source limits assumed): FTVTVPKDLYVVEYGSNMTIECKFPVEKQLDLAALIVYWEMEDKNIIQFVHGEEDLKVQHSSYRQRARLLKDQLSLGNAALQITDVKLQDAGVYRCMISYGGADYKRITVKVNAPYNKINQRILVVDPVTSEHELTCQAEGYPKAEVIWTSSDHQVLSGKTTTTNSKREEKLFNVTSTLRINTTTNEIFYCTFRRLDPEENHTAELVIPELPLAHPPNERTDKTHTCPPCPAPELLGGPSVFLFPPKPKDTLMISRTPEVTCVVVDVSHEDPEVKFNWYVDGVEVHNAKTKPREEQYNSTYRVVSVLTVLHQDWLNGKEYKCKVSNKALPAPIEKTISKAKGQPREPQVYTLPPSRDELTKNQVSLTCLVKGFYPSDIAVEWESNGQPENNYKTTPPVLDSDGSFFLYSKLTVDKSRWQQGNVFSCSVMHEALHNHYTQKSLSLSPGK
T2 sequence (chain, as listed by the source limits assumed): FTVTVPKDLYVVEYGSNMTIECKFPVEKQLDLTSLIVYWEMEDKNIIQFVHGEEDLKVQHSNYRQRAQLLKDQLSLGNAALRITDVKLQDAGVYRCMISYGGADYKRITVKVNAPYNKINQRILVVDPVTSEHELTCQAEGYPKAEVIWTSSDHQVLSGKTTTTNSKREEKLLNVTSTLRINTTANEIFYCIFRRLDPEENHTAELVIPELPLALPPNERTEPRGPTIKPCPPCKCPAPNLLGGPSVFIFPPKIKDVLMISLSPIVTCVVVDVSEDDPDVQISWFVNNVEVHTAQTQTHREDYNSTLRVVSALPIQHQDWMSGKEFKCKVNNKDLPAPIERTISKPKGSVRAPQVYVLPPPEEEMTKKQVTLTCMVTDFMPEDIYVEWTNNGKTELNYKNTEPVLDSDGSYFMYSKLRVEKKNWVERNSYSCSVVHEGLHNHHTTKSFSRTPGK
T1 sequence (Q9NZQ7 19-290 limits assumed): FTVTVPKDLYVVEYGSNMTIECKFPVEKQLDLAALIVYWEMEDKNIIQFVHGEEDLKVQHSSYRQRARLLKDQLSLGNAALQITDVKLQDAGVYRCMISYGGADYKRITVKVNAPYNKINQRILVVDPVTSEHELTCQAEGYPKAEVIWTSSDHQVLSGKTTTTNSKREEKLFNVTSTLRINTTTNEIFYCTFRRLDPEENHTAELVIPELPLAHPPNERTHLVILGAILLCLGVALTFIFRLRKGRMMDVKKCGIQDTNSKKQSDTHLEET
T4 sequence (chain, as listed by the source limits assumed): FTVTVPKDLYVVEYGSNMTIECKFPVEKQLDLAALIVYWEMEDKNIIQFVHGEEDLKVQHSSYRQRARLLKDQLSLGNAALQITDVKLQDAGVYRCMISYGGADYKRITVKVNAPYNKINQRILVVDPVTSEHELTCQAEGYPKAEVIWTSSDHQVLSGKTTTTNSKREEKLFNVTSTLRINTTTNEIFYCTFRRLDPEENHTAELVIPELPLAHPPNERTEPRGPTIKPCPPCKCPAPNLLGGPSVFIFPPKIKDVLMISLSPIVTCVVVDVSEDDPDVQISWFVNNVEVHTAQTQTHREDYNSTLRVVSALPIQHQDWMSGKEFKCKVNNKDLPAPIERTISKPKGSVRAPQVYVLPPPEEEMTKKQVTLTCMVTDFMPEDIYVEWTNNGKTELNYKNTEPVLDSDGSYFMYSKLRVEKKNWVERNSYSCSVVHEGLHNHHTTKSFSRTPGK

Row | MFI [1] [MFI] | Kd [2] | koff [2] | kon [2] | t1/2 [2] | Ratio of HEK293/hPD-L1 to HEK293 parental cells [3] | % Blocking [4] [%] | % maximum blocking [5] [%] | Emax mean [%] @ 100 nM [6] [%] | % maximum blocking [7] [%] | IC50 [7] [nM] | IC50 [5] [nM] | Concentration [M] of Antibody at 125% activation [6] [M] | Binder
1 | 276000 | 0.746 nM | 0.000203 s⁻¹ | 272000 M⁻¹ s⁻¹ | 57 min | 125 | -428 | -13 | 89.9 | 34 | 0.53 |  |  | H1H9354P2 (antibody, V domains shown, human IgG1 Fc (H1H prefix)) VH: EVQLVESGGGLVQPGGSLRLSCEASGFTVGVNHMNWVRQAPGKGLEWVSVIFSSGRTFYGDYVKGRLTIFRQTSQNTVYLQMNSLRSEDTAIYYCARGIGGLDIWGRGTMVTVSS VL: not shown
2 | 324000 | 0.139 nM and 0.161 nM | 0.000474 s⁻¹ and 0.000465 s⁻¹ | 3.41e+06 M⁻¹ s⁻¹ and 2.9e+06 M⁻¹ s⁻¹ | 24 min and 25 min | 263 | 91 | 100 | 141 | 100 | < 0.25 | < 4 | 1.86e-11 | H1H9387P2 (antibody, V domains shown, human IgG1 Fc (H1H prefix)) VH: QVQLVQSGAEVKKPGSSVKVSCKASGGTFNTYVLSWVRQAPGQGLEWMGEIIPILGAANYAQNFQGRVTFTTDESTNTAYMDLSSLRSEDTAVYYCARDRTSGGFDPWGQGTLVTVSS VL: not shown
3 | 379000 | 0.0247 nM | 4.6e-05 s⁻¹ | 1.86e+06 M⁻¹ s⁻¹ | 251 min | 168 | 84 | 99 | 163 | 100 | < 0.25 | 4.4 | 9.81e-11 | H1H9336P (antibody, V domains shown, human IgG1 Fc (H1H prefix)) VH: EVQLVESGGGLVQPGRSLRLSCAASGFTFDDFAMHWVRQAPGKGLEWVSGISWTGGNMDYANSVKGRFTISREDAKNSLYLQMNSLRAADTALYYCVKDIRGIVATGGAFDIWGRGTMVTVSS VL: DIQMTQSPSSLSASVGDRVTISCRASQTISTYLNWFQQKPGKAPKLLIYVVSSLQSGVPSRFSGSGSGTDFTLTISSLQPEDFATYYCQQSYSTPFTFGPGTKVDIK
4 | 228000 | 0.339 nM | 0.000292 s⁻¹ | 861000 M⁻¹ s⁻¹ | 40 min | 121 | -422 | -34 | 89.2 | 26 | < 0.25 |  |  | H1H9345P2 (antibody, V domains shown, human IgG1 Fc (H1H prefix)) VH: EVQLVESGGGLVQPGGSLRLSCAASGFTISTNYMNWVRQAPGKGLEWVAVIYSSGSTYYIDSVKGRFTISRLTSKNTVYLQMSSLNSEDTAVYYCARGIRGFDIWGQGTMVTVSS VL: not shown
5 | 228000 | 0.319 nM | 0.000502 s⁻¹ | 1.57e+06 M⁻¹ s⁻¹ | 23 min | 97 | -193 | 8 | 103 | 59 | < 0.25 |  |  | H1H9396P2 (antibody, V domains shown, human IgG1 Fc (H1H prefix)) VH: QVQLVQSGAEVEKPGASVKVSCKASGYIFTHYGISWVRQAPGQGLEWVGWISPYNGYTDYAQKLQGRVTLTTDTSTTTAYMELRNLRSDDTAMYYCSRGRGPYWSFDLWGRGTLVTVSS VL: not shown
6 | 206000 | 0.825 nM | 0.000235 s⁻¹ | 284000 M⁻¹ s⁻¹ | 49 min | 140 | -448 | -30 | 86.5 | 39 | < 0.25 |  |  | H1H9382P2 (antibody, V domains shown, human IgG1 Fc (H1H prefix)) VH: EVQLVESGGGLVQPGGSLRLSCAASGFTVGTNFMNWVRQAPGKGLEWVSAIYSGGTANYADSVKGRFTISRDTSRNTLYLQMNSLRTEDTAVYYCARGGGMDVWGQGTTVTVSS VL: not shown
